{"source": "the RNAGym collection of RNA variant scans (doi:10.7554/elife.80360)", "parents": {"B1": {"name": "HDV Ribozyme (parent)", "chain": "GGCCGGCAUGGUCCCAGCCUCCUCGCUGGCGCCGGCUGGGCAACAUUCCGAGGGGACCGUCCCCUCGGUAAUGGCGAAUGGGACCCA"}}, "data": [{"variants_of": "B1", "experiment": "self-cleavage, relative activity (ratio to wild type); higher = more cleavage; co-transcriptional", "values": [{"variant": "GGCCGGCAAGGUCCCAGCCUCCUCGCUGGCGCCGGCUGCGCAACAUUCCGAGGGGACCGUCCCCUCGGUAAUGGCGAAUGGGACCCA", "self-cleavage": 0.178}, {"variant": "GGCCGGCAAGGUCCCAGCCUCCUCGCUGGCGCCGGCUGUGCAACAUUCCGAGGGGACCGUCCCCUCGGUAAUGGCGAAUGGGACCCA", "self-cleavage": 0.917}, {"variant": "GGCCGGCAAGGUCCCAGCCUCCUCGCUGGCGCCGUCUGGGCAACAUUCCGAGGGGACCGUCCCCUCGGUAAUGGCGAAUGGGACCCA", "self-cleavage": 0.264}, {"variant": "GGCCGGCAAGGUCCAAGCCUCCUCGCUGGCGCCGGCUGGGCAACAUUCCGAGGGGACCGUCCCCUCGGUAAUGGCGAAUGGGACCCA", "self-cleavage": 0.677}, {"variant": "GGCCGGCAAGGUCCCAGCCUCCUCGCUAGCGCCGGCUGGGCAACAUUCCGAGGGGACCGUCCCCUCGGUAAUGGCGAAUGGGACCCA", "self-cleavage": 0.138}, {"variant": "GGCCGGCUUGGUCCCAGCCUCCUCGCUGGCGCCGGCGGGGCAACAUUCCGAGGGGACCGUCCCCUCGGUAAUGGCGAAUGGGACCCA", "self-cleavage": 0.222}, {"variant": "GGCCGGCAAGGUCCCAGCCUCCUCGCUGGCGCCGGCAGGGCAACAUUCCGAGGGGACCGUCCCCUCGGUAAUGGCGAAUGGGACCCA", "self-cleavage": 0}, {"variant": "GGCCGGCAAGGUCCCAGCCUCCUCGCUGGCCCCGGCUGGGCAACAUUCCGAGGGGACCGUCCCCUCGGUAAUGGCGAAUGGGACCCA", "self-cleavage": 0.287}, {"variant": "GGCCGGCUUGGUCCCAGCCUCCUCGCUGGCGCCGGCUGGGCAACAUUCCGAGGGGACCGUCCCCUCGGAAAUGGCGAAUGGGACCCA", "self-cleavage": 0.962}, {"variant": "GGCCGGCUUGGUCCCAGCCUCCUCGCUGGCGCCGGCUGGGCAACAUUCCGAGGGGACCGUCCCCUCGGCAAUGGCGAAUGGGACCCA", "self-cleavage": 0.646}, {"variant": "GGCCGGCUUGGUCCCAGCCUCCCCGCUGGCGCCGGCUGGGCAACAUUCCGAGGGGACCGUCCCCUCGGUAAUGGCGAAUGGGACCCA", "self-cleavage": 0.532}, {"variant": "GGCCGGCAAGGUCCCAGCCUCCCCGCUGGCGCCGGCUGGGCAACAUUCCGAGGGGACCGUCCCCUCGGUAAUGGCGAAUGGGACCCA", "self-cleavage": 1.08}, {"variant": "GGCCGGCAAGGUCCCAGCCUCCUCGCUGGCGCCGGCUGGGCAACAUUCCGAGGGGACCGUCCCCUUGGUAAUGGCGAAUGGGACCCA", "self-cleavage": 1.01}, {"variant": "GGCCGGCAAGGACCCAGCCUCCUCGCUGGCGCCGGCUGGGCAACAUUCCGAGGGGACCGUCCCCUCGGUAAUGGCGAAUGGGACCCA", "self-cleavage": 0.361}, {"variant": "GGCCGGCAAGGUCCCAGCCUCCUCGCUGGCGCCGGCUGGGCAACAUUCCGAGGGGACCGUCCCCUCCGUAAUGGCGAAUGGGACCCA", "self-cleavage": 0.831}, {"variant": "GGCCGGCUUGGUCCCAGCCUCCUCCCUGGCGCCGGCUGGGCAACAUUCCGAGGGGACCGUCCCCUCGGUAAUGGCGAAUGGGACCCA", "self-cleavage": 0.277}, {"variant": "GGCCGGCAAGGUCCCAGCCUCCUCGCUGGCGCCGGCUGGGCAACAUUCCGAGGGGACCGUCCCCUCGGUAAUGGCUAAUGGGACCCA", "self-cleavage": 1.02}, {"variant": "GGCCGGCAAGGUCCCAGCCUCCUCGCUGGCGCCGGCUGGGCAACAUUCCGAGGGGACCGUCCCCUCGGUAAUGGCGGAUGGGACCCA", "self-cleavage": 0.751}, {"variant": "GGCCGGCUUGGUCCCAGCCUCCUCGCUGCCGCCGGCUGGGCAACAUUCCGAGGGGACCGUCCCCUCGGUAAUGGCGAAUGGGACCCA", "self-cleavage": 0.0554}, {"variant": "GGCCGGCUUCGUCCCAGCCUCCUCGCUGGCGCCGGCUGGGCAACAUUCCGAGGGGACCGUCCCCUCGGUAAUGGCGAAUGGGACCCA", "self-cleavage": 0.639}, {"variant": "GGCCGGCUUGGUCCCAGCCUCCUCGCUGGCGCCGGCUGGGCAACAUUCCGACGGGACCGUCCCCUCGGUAAUGGCGAAUGGGACCCA", "self-cleavage": 0.779}, {"variant": "GGCCGGCUUGGUCCCAGCCUCCUCGCUGGCGCCGGCUGGGCAACAUUCCGAGGGGACCGUCCCCUCGGUAAUGUCGAAUGGGACCCA", "self-cleavage": 0.173}, {"variant": "GGCCGGCAAGGUCCCAGCCUCCUCGCUGGCGCCGGCUGGGCAACAUUCCGAGGAGACCGUCCCCUCGGUAAUGGCGAAUGGGACCCA", "self-cleavage": 0.943}, {"variant": "GGCCGGCAAGGUCCCAGCCUCCUCGCUGGCGCCGGCUGGGAAACAUUCCGAGGGGACCGUCCCCUCGGUAAUGGCGAAUGGGACCCA", "self-cleavage": 0.831}, {"variant": "GGCCGGCAAGGUCCCAGCCUCCUCGCUGGCGCCGGCUGGGCAACAUUCCGAGGGGACCGUCCCCUCGGUAAUGGCGAAUGGGACCCA", "self-cleavage": 1.04}, {"variant": "GGCCGGCUUGGUCCCAUCCUCCUCGCUGGCGCCGGCUGGGCAACAUUCCGAGGGGACCGUCCCCUCGGUAAUGGCGAAUGGGACCCA", "self-cleavage": 0.18}, {"variant": "GGCCGGCUUGGUCCCAACCUCCUCGCUGGCGCCGGCUGGGCAACAUUCCGAGGGGACCGUCCCCUCGGUAAUGGCGAAUGGGACCCA", "self-cleavage": 0.665}, {"variant": "GGCCGGCUUGGUCCCAGCCUCCUCGCUGGCGCCGGCUGGGCAACAUUCCGAGGGGACCUUCCCCUCGGUAAUGGCGAAUGGGACCCA", "self-cleavage": 1.04}, {"variant": "GGCCGGCAAGGUCCCAGCUUCCUCGCUGGCGCCGGCUGGGCAACAUUCCGAGGGGACCGUCCCCUCGGUAAUGGCGAAUGGGACCCA", "self-cleavage": 0.113}, {"variant": "GGCCGGCAAGGUCCCAGCGUCCUCGCUGGCGCCGGCUGGGCAACAUUCCGAGGGGACCGUCCCCUCGGUAAUGGCGAAUGGGACCCA", "self-cleavage": 0.0665}, {"variant": "GGCCGGCUUGGUCCCAGCCUCCUCGCUGGCGCCGGCUGGGCAACAUUCCGAGGGGACCGACCCCUCGGUAAUGGCGAAUGGGACCCA", "self-cleavage": 0.939}, {"variant": "GGCCGGCUUGGUCCCAGCCUCCUCGCUGGCGCCGGCUGGACAACAUUCCGAGGGGACCGUCCCCUCGGUAAUGGCGAAUGGGACCCA", "self-cleavage": 0.892}, {"variant": "GGCCGGCAAGGUCCCAGCCUCCUCGCUGGCGCCGGCUGGGCAACAUUCCGAGGGGACCGUCCCCUCGGUAAUGGCGAAUGGGACCGA", "self-cleavage": 1.04}, {"variant": "GGCCGGCAAGGUCCCAGCCUCCUCGCUGGCGCCGGCUGGGCAACAUUCCGAGGGGACCGUCCCCUCGGUAAUGGCGAAUGGGACCAA", "self-cleavage": 0.554}, {"variant": "GGCCGGCAAAGUCCCAGCCUCCUCGCUGGCGCCGGCUGGGCAACAUUCCGAGGGGACCGUCCCCUCGGUAAUGGCGAAUGGGACCCA", "self-cleavage": 1.03}, {"variant": "GGCCGGCAAGGUCCCAGCCUCCUCGCUGGCGCCGGCUGGGCAACAUUCCGAGGGGACCGUCCCCUCGGUACUGGCGAAUGGGACCCA", "self-cleavage": 1.05}, {"variant": "GGCCGGCAAGGUCCCAGCCUUCUCGCUGGCGCCGGCUGGGCAACAUUCCGAGGGGACCGUCCCCUCGGUAAUGGCGAAUGGGACCCA", "self-cleavage": 0.155}, {"variant": "GGCCGGCUUGGUCCCAGCCUCCUCGCUGGCUCCGGCUGGGCAACAUUCCGAGGGGACCGUCCCCUCGGUAAUGGCGAAUGGGACCCA", "self-cleavage": 0.0475}, {"variant": "GGCCGGCAAGGUCCCAGCCUCCUCGCUGGCGCCGGCUGGGCAACAUUCCGAGGGGACCGUCUCCUCGGUAAUGGCGAAUGGGACCCA", "self-cleavage": 1.06}, {"variant": "GGCCGGCAAGGUCCCAGCCUCCUCGCUGGCGCCGGCUGGGCAACAUUCGGAGGGGACCGUCCCCUCGGUAAUGGCGAAUGGGACCCA", "self-cleavage": 0.88}, {"variant": "GGCCGGCAAGGUCCCAGCCUCCUCGCUGGCGCCGGCUGGGCAACAUUCAGAGGGGACCGUCCCCUCGGUAAUGGCGAAUGGGACCCA", "self-cleavage": 0.554}, {"variant": "GGCCGGCUUGUUCCCAGCCUCCUCGCUGGCGCCGGCUGGGCAACAUUCCGAGGGGACCGUCCCCUCGGUAAUGGCGAAUGGGACCCA", "self-cleavage": 0.201}, {"variant": "GGCCGGCUGGGUCCCAGCCUCCUCGCUGGCGCCGGCUGGGCAACAUUCCGAGGGGACCGUCCCCUCGGUAAUGGCGAAUGGGACCCA", "self-cleavage": 0.997}, {"variant": "GGCCGGCAAGGUCCCAGCCUCCUCGCUGGCGCCGGCUGGCCAACAUUCCGAGGGGACCGUCCCCUCGGUAAUGGCGAAUGGGACCCA", "self-cleavage": 0.325}, {"variant": "GGCCGGCUUGGUCCCAGCCUCCUCGCUGGCGCCGCCUGGGCAACAUUCCGAGGGGACCGUCCCCUCGGUAAUGGCGAAUGGGACCCA", "self-cleavage": 0.0639}, {"variant": "GGCCGGCUUGGUCCCAGCCUCCUCGCUGGCGCCGGCUGGGCAACAUUCCGAGGGGACCGUCCCCACGGUAAUGGCGAAUGGGACCCA", "self-cleavage": 0.617}, {"variant": "GGCCGGCUUGGUCCCAGCCUCCUCGCUGGCGCCGGCUGGGCAACAUUCCGAGGGGACCGUCCCCGCGGUAAUGGCGAAUGGGACCCA", "self-cleavage": 0.748}, {"variant": "GGCCGGCUUGGUCCCAGCCUCCUCGCUGGCGCCGGCUGGGCAACAUUCCGAGGGGACCGUCCCCUCGGUAAUGGCGAAUGUGACCCA", "self-cleavage": 0.175}, {"variant": "GGCCGGCUUGGUCCCAGCCUCCUCGCUGGCGCCCGCUGGGCAACAUUCCGAGGGGACCGUCCCCUCGGUAAUGGCGAAUGGGACCCA", "self-cleavage": 0}, {"variant": "GGCCGGCUUGGUCCCAGCCUCCUCGCUGGCGCCGGCUGGGCAACAUUCCGAGGGGACCGUCCCCUCUGUAAUGGCGAAUGGGACCCA", "self-cleavage": 0.898}, {"variant": "GGCCGGCUUGGUCCCAGCCUCCUCGCUGGCGCCGGCUGGGCAACAUUCCGAGGGGACCGUCCCCUCAGUAAUGGCGAAUGGGACCCA", "self-cleavage": 0.855}, {"variant": "GGCCGGCAAGGUCCCAGCCUCCUCGCUGGCGCCGGCUGGGCAACAUUCCGAGGGGACCGUCCCCUCGGUAAUGGCGAAUGGGCCCCA", "self-cleavage": 0.731}, {"variant": "GGCCGGCAAGGUCCCAGCCUCCUCGCUGGCGCCGGCUGGGCAACAUUCCGAGGGGACCGUCCCCUCGGUAAUGGCGAAUGCGACCCA", "self-cleavage": 0.35}, {"variant": "GGCCGGCUUGGUCCCAGCCUCCUCGCUGGCGCCGGCUGGGCAACAUCCCGAGGGGACCGUCCCCUCGGUAAUGGCGAAUGGGACCCA", "self-cleavage": 0.68}, {"variant": "GGCCGGCAAGGUCCCAGCCUCCUCGCUGGCGCCGGCUGGGCAACAUUCCGAGGGGACCGUCCCCUCGGUAAUGGCGAAUUGGACCCA", "self-cleavage": 0.213}, {"variant": "GGCCGGCAAGGUCCCAGCCUCCUCGCUGGCGCCAGCUGGGCAACAUUCCGAGGGGACCGUCCCCUCGGUAAUGGCGAAUGGGACCCA", "self-cleavage": 0.232}, {"variant": "GGCCGGCAAGGUCCCAGCCUCCUCGCUGCCGCCGGCUGGGCAACAUUCCGAGGGGACCGUCCCCUCGGUAAUGGCGAAUGGGACCCA", "self-cleavage": 0}, {"variant": "GGCCGGCUUGGUCCCAGCCUCCUCGCUGGCGCCGGCUGGGCAACAUUCCGAGGGGACCGUCCCCUCGGUAAUGGCGAAUUGGACCCA", "self-cleavage": 0.0715}, {"variant": "GGCCGGCUUGGUCCCAGCCUCCUCGCUGGCGCCGGCUGGGCAACAUUCCGAGGGGACCGUCCCCUCGGUAAUGGCGAAUCGGACCCA", "self-cleavage": 0.128}, {"variant": "GGCCGGCAAGGUCCCAGCCUCCUCGCUGGCGCCGGCUGGGCAGCAUUCCGAGGGGACCGUCCCCUCGGUAAUGGCGAAUGGGACCCA", "self-cleavage": 0.712}, {"variant": "GGCCGGCAAGGUCCCAGCCUCCUCGCUGGCGCCGGCUGGGCAUCAUUCCGAGGGGACCGUCCCCUCGGUAAUGGCGAAUGGGACCCA", "self-cleavage": 0.675}, {"variant": "GGCCGGCAAGGUCCCAGCCUCCUCGCUGGCGCCGGCUGGGCAACAUUCCGAGGGGACCGUCCGCUCGGUAAUGGCGAAUGGGACCCA", "self-cleavage": 0.502}, {"variant": "GGCCGGCAAGGUCCCAGCCUCCUCGCUGGCGCCGGCUGGGCAACAUUCCGAGGGUACCGUCCCCUCGGUAAUGGCGAAUGGGACCCA", "self-cleavage": 0.895}, {"variant": "GGCCGGCUUGGUCCCAGCCUCCUCGCUGGCGCCGGCUGCGCAACAUUCCGAGGGGACCGUCCCCUCGGUAAUGGCGAAUGGGACCCA", "self-cleavage": 0.166}]}]}
